Experimental data: patent US20160200782A1 (MOERAE MATRIX, published 2016)

T1: NLK(h) (human, UniProt Q9UBE8 1-527, limits assumed)
T1 sequence (looked up): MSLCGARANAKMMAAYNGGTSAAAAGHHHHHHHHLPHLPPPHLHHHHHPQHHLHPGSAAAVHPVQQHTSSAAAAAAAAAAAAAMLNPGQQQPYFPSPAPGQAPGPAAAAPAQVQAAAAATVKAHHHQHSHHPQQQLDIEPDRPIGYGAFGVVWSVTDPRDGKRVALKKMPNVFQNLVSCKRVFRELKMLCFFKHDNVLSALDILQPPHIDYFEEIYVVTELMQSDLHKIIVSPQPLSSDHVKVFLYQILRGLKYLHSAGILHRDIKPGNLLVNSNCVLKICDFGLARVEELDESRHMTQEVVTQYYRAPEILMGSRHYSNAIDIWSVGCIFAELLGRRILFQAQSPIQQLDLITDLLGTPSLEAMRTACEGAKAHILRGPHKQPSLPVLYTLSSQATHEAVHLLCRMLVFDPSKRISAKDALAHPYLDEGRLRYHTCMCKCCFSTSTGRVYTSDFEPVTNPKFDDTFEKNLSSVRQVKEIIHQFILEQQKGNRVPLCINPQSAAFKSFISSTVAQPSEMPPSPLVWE

T2: DMPK(h) (human, UniProt Q09013 1-629, limits assumed)
T2 sequence (looked up): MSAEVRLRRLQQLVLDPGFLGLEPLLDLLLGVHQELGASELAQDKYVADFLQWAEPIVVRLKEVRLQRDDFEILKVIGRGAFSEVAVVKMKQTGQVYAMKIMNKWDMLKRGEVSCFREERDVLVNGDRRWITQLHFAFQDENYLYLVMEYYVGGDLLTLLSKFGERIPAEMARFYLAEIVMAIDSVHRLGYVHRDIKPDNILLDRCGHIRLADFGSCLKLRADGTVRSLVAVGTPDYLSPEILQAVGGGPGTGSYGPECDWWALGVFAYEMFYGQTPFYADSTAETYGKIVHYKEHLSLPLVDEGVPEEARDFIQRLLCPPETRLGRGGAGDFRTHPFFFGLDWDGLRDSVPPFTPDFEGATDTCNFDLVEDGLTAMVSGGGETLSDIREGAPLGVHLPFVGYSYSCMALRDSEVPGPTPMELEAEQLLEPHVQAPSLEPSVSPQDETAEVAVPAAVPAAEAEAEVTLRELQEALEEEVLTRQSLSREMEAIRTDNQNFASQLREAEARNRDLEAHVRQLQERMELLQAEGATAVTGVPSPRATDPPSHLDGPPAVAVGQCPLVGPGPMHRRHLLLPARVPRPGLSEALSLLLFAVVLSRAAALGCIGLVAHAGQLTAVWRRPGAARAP

T3: NEK3(h) (human, UniProt P51956 1-506, limits assumed)
T3 sequence (looked up): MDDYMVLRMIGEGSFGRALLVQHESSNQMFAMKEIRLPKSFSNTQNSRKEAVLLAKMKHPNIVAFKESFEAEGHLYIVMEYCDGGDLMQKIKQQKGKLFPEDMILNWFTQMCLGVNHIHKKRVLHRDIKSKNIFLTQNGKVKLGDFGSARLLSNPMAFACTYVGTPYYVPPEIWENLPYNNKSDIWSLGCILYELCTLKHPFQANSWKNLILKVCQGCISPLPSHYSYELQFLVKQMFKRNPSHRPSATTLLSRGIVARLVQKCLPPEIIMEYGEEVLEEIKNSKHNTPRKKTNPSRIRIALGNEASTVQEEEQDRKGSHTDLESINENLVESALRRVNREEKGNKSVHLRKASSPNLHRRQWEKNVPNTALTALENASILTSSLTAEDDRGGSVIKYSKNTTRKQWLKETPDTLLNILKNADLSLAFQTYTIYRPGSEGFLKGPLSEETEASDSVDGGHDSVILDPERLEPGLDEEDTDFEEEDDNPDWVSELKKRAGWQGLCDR

T4: IKKβ(h) (human, UniProt O14920 1-756, limits assumed)
T4 sequence (looked up): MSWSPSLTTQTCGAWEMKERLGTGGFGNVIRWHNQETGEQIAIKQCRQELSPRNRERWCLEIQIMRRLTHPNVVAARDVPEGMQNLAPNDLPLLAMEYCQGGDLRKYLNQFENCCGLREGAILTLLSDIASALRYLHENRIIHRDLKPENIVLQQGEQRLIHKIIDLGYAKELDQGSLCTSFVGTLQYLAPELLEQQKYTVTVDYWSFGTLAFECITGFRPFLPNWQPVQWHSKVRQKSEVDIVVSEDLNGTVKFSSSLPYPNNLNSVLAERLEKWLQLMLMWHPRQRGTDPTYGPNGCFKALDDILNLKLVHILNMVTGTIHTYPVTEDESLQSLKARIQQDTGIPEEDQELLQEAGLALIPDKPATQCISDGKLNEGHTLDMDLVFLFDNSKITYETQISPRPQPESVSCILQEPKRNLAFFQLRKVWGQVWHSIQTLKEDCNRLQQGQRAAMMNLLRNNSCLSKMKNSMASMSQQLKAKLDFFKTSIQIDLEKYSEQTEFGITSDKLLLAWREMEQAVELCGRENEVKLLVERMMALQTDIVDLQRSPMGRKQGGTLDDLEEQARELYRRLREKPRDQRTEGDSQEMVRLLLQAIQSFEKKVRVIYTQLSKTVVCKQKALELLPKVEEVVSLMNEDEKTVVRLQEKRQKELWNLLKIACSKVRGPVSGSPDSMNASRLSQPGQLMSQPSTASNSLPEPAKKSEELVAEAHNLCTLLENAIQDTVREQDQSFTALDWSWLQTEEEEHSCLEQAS


How the values were obtained:
Experiment in all cases: cell-based or functional assay
NLK(h) = target: T1, NLK(h)
Fgr(h) = Fgr(h) (human, UniProt P09769 1-529, limits assumed)
MRCKα(h) = MRCKα(h) (human, UniProt Q5VT25 1-473, limits assumed)
Fer(h) = Fer(h) (human, UniProt P16591 541-822, limits assumed)
SAPK2a(T106M)(h) = SAPK2a(T106M)(h) (human, UniProt Q16539 1-360)
DMPK(h) = target: T2, DMPK(h)
NEK3(h) = target: T3, NEK3(h)
IKKβ(h) = target: T4, IKKβ(h)
CHK2(h) = CHK2(h) (human, UniProt O96017 5-543, limits assumed)
CHK2(h), sequence (O96017 5-543 limits assumed): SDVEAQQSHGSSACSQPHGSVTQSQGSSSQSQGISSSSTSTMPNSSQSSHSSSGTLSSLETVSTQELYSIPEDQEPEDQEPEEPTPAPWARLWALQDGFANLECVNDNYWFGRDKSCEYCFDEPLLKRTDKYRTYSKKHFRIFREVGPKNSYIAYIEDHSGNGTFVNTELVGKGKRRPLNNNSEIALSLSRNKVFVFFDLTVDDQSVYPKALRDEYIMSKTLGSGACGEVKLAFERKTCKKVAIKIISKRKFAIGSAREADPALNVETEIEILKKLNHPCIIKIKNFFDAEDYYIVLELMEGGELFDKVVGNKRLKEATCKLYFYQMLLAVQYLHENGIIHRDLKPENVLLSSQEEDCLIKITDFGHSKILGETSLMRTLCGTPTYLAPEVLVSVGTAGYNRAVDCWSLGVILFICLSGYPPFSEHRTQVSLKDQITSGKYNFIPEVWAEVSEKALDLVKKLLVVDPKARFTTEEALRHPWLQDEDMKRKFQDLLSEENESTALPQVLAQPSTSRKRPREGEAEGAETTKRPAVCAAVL

MRCKα(h), sequence (Q5VT25 1-473 limits assumed): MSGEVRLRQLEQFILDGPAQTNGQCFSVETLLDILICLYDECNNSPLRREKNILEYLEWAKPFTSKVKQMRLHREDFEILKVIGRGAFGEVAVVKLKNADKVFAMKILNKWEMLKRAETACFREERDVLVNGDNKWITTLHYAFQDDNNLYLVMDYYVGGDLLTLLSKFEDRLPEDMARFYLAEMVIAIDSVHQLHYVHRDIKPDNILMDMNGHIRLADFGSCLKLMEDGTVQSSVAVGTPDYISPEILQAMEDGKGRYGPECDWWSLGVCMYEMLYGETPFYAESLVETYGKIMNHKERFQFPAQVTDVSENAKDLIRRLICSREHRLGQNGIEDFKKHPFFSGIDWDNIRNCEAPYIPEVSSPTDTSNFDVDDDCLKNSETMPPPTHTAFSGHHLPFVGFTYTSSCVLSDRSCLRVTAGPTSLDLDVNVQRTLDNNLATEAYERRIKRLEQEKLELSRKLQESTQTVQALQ
Fer(h), sequence (P16591 541-822 limits assumed): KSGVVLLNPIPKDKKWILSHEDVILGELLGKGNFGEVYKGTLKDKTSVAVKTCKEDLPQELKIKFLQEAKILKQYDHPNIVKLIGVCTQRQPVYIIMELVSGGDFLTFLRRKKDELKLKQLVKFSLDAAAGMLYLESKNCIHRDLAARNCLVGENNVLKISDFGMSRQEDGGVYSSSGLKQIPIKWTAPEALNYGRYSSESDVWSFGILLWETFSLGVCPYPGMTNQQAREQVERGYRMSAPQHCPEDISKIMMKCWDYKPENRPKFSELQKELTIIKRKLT
SAPK2a(T106M)(h), sequence (Q16539 whole entry T106M): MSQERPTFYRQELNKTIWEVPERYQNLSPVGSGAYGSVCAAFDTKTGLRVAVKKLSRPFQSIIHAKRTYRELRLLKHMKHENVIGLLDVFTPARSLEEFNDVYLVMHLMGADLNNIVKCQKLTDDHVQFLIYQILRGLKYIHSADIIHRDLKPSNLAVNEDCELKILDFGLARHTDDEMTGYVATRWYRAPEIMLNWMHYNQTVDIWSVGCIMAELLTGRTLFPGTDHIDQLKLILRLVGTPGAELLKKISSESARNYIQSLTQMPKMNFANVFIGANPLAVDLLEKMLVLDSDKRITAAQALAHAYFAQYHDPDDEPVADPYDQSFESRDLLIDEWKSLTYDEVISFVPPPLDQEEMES

Row | % activity (NLK(h)) | % activity (Fgr(h)) | % activity (MRCKα(h)) | % activity (Fer(h)) | % activity (SAPK2a(T106M)(h)) | % activity (DMPK(h)) | % activity (NEK3(h)) | % activity (IKKβ(h)) | % activity (CHK2(h)) | Binder
1 | 90% | 47% | 97% | 108% | 99% | 54% | 85% | 84% | 54% | KAFAKLAARLYRKALARQLGVAA [MMI-0400]
2 | 87% | 60% | 104% | 130% | 97% | 59% | 92% | 84% | 66% | FAKLAARLYRKALARQLGVAA [MMI-0300]
